Sequences and labels used below:
B1: wt-L2 lipase (Bacillus sp. L2) (protein)
chain: ASLRANDAPIVLLHGFTGWGREEMFGFKYWGGVRGDIEQWLNDNGYRTYTLAVGPLSSNWDRACEAYAQLVGGTVDYGAAHAAKHGHARFGRTYPGLLPELKRGGRIHIIAHSQGGQTARMLVSLLENGSQEEREYAKAHNVSLSPLFEGGHHFVLSVTTIATPHDGTTLVNMVDFTDRFFDLQKAVLEAAAVASNVPYTSQVYDFKLDQWGLRRQPGESFDHYFERLKRSPVWTSTDTARYDLSVSGAEKLNQWVQASPNTYYLSFSTERTYRGALTGNHYPELGMNAFSAVVCAPFLGSYRNPTLGIDDRWLENDGIVNTVSMNGPKRGSSDRIVPYDGTLKKGVWNDMGTYNVDHLEIIGVDPNPSFDIRAFYLRLAEQLASLLP
notes: recombinant from pET32(B)+ in E. coli BL21(DE3), Ni Sepharose purified
B2: wt-L2 lipase (Bacillus sp. L2; A36P) (protein)
chain: ASLRANDPPIVLLHGFTGWGREEMFGFKYWGGVRGDIEQWLNDNGYRTYTLAVGPLSSNWDRACEAYAQLVGGTVDYGAAHAAKHGHARFGRTYPGLLPELKRGGRIHIIAHSQGGQTARMLVSLLENGSQEEREYAKAHNVSLSPLFEGGHHFVLSVTTIATPHDGTTLVNMVDFTDRFFDLQKAVLEAAAVASNVPYTSQVYDFKLDQWGLRRQPGESFDHYFERLKRSPVWTSTDTARYDLSVSGAEKLNQWVQASPNTYYLSFSTERTYRGALTGNHYPELGMNAFSAVVCAPFLGSYRNPTLGIDDRWLENDGIVNTVSMNGPKRGSSDRIVPYDGTLKKGVWNDMGTYNVDHLEIIGVDPNPSFDIRAFYLRLAEQLASLLP
notes: as for B1
B3: wt-L2 lipase (Bacillus sp. L2; A36E) (protein)
chain: ASLRANDEPIVLLHGFTGWGREEMFGFKYWGGVRGDIEQWLNDNGYRTYTLAVGPLSSNWDRACEAYAQLVGGTVDYGAAHAAKHGHARFGRTYPGLLPELKRGGRIHIIAHSQGGQTARMLVSLLENGSQEEREYAKAHNVSLSPLFEGGHHFVLSVTTIATPHDGTTLVNMVDFTDRFFDLQKAVLEAAAVASNVPYTSQVYDFKLDQWGLRRQPGESFDHYFERLKRSPVWTSTDTARYDLSVSGAEKLNQWVQASPNTYYLSFSTERTYRGALTGNHYPELGMNAFSAVVCAPFLGSYRNPTLGIDDRWLENDGIVNTVSMNGPKRGSSDRIVPYDGTLKKGVWNDMGTYNVDHLEIIGVDPNPSFDIRAFYLRLAEQLASLLP
notes: as for B1
B4: wt-L2 lipase (Bacillus sp. L2; A36V) (protein)
chain: ASLRANDVPIVLLHGFTGWGREEMFGFKYWGGVRGDIEQWLNDNGYRTYTLAVGPLSSNWDRACEAYAQLVGGTVDYGAAHAAKHGHARFGRTYPGLLPELKRGGRIHIIAHSQGGQTARMLVSLLENGSQEEREYAKAHNVSLSPLFEGGHHFVLSVTTIATPHDGTTLVNMVDFTDRFFDLQKAVLEAAAVASNVPYTSQVYDFKLDQWGLRRQPGESFDHYFERLKRSPVWTSTDTARYDLSVSGAEKLNQWVQASPNTYYLSFSTERTYRGALTGNHYPELGMNAFSAVVCAPFLGSYRNPTLGIDDRWLENDGIVNTVSMNGPKRGSSDRIVPYDGTLKKGVWNDMGTYNVDHLEIIGVDPNPSFDIRAFYLRLAEQLASLLP
notes: as for B1

Substrate in the series: CCCCCCCCCC(=O)Oc1ccc([N+](=O)[O-])cc1
As to the kind of experiment: pNP ester hydrolysis, Lineweaver-Burk. In kind it is biochemical, Bacillus sp. L2. As to conditions: 70 °C (optimum temperature), 0.6-5.0 mM substrate. The text has this: pNP ester hydrolysis, Lineweaver-Burk on wt-L2 lipase
B1: the Michaelis-Menten constant (Km) (in general, the concentration of substrate that gives half-maximal velocity) is 1080 µM; the turnover number (kcat) (usually the maximal rate divided by the concentration of active sites) came to 175 s⁻¹; the kcat/Km (usually the second-order rate constant that governs catalysis at low substrate concentration) turned out to be 162000 M⁻¹ s⁻¹.

On to B2, for which the Km came out at 1340 µM, the Vmax (usually the top rate of the reaction or transport when substrate is in excess) came out at 76300 µM/min, the kcat amounted to 127 s⁻¹ and the kcat/Km was 94900 M⁻¹ s⁻¹.

For the protein B3, the Km was determined as 4380 µM, the Vmax came to 71900 µM/min, the kcat stood at 120 s⁻¹ and the kcat/Km is 27200 M⁻¹ s⁻¹.

Take B4: the Km stood at 520 µM, the Vmax is 81300 µM/min, the kcat came to 136 s⁻¹ and the kcat/Km stood at 207000 M⁻¹ s⁻¹.

The values above are taken from article PMC7435863, “Single Residue Substitution at N-Terminal Affects Temperature Stability and Activity of L2 Lipase” (Molecules, 2020).
